Reference: patent publication US20250011363A1, “OPTIMIZED SHORTENED PEPTIDE THAT BINDS TO ACETYLCHOLINE RECEPTOR, AND USE THEREOF” (SKINMED CO., LTD., priority 2021, published 2025)

These substances were tested against acetylcholine receptor (Homo sapiens, UniProt P02708) (assay: SPR binding affinity (RU) of optimized 5mer/6mer/7mer peptides, Examples 6-7). Conditions: SPR, Resonance Units; peptides tested at 10 μM; 6mer-2 Bottom sequence.
How it was run: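 Response units from SPR give the binding values listed. Each synthesized peptide was run at 10 μM over the receptor.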

Chain of acetylcholine receptor (P02708 21-457): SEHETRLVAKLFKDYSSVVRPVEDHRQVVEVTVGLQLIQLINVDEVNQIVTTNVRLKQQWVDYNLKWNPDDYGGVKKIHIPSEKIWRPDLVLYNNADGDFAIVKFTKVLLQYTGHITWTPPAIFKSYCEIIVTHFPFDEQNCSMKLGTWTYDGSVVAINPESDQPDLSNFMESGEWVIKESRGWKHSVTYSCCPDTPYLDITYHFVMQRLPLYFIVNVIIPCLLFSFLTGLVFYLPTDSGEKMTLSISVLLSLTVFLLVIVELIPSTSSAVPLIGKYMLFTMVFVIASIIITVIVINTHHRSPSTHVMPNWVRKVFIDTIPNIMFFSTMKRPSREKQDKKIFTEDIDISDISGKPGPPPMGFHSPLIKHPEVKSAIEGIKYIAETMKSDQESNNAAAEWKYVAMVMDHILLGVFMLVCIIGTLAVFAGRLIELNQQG

In order of falling Binding affinity:
1. 6mer-2-909 (RCNPRR)  42 Ru
2. 6mer-2-922 (KDNVRR)  41 Ru
3. 6mer-2-903 (KKNPKK)  40 Ru
4. 6mer-2-906 (KYCDKK)  40 Ru
5. 6mer-2-927 (RFNPRK)  39 Ru
6. 6mer-2-930 (RTWIKR)  37 Ru
7. 6mer-2-918 (KNWMRK)  35 Ru
8. 6mer-2-932 (RIPWRR)  35 Ru
9. 6mer-2-901 (RYWDRK)  34 Ru
10. 6mer-2-933 (RYSMKR)  34 Ru
11. 6mer-2-821 (RPTMKR)  33 Ru
12. 6mer-2-841 (KPNHRK)  33 Ru
13. 6mer-2-843 (KAPDRK)  33 Ru
14. 6mer-2-874 (KIHFRK)  33 Ru
15. 6mer-2-881 (KDTEKK)  33 Ru
16. 6mer-2-908 (KYKKKR)  33 Ru
17. 6mer-2-923 (RCCAKK)  33 Ru
18. 6mer-2-828 (RMKKKR)  32 Ru
19. 6mer-2-832 (KYHNRR)  32 Ru
20. 6mer-2-837 (REDFRR)  32 Ru
21. 6mer-2-839 (KNHNRR)  32 Ru
22. 6mer-2-867 (KYWEKK)  32 Ru
23. 6mer-2-860 (KPNFRR)  31 Ru
24. 6mer-2-871 (REMPKR)  31 Ru
25. 6mer-2-926 (RPTVKR)  31 Ru
26. 6mer-2-846 (RFSFKR)  30 Ru
27. 6mer-2-858 (KEEHRR)  30 Ru
28. 6mer-2-868 (RTPNRR)  30 Ru
29. 6mer-2-890 (RDNPKR)  30 Ru
30. 6mer-2-896 (RTCARR)  30 Ru
31. 6mer-2-904 (KCCFKK)  30 Ru
32. 6mer-2-831 (RMTWRK)  29 Ru
33. 6mer-2-848 (RMTERK)  29 Ru
34. 6mer-2-853 (KHTGRR)  29 Ru
35. 6mer-2-862 (RHTFKK)  29 Ru
36. 6mer-2-915 (KNCWKR)  29 Ru
37. 6mer-2-931 (RYCFKR)  29 Ru
38. 6mer-2-834 (RFWWKR)  28 Ru
39. 6mer-2-852 (RNCERR)  28 Ru
40. 6mer-2-872 (KTHFRK)  28 Ru
41. 6mer-2-891 (RTSIRK)  28 Ru
42. 6mer-2-895 (KYMAKK)  28 Ru
43. 6mer-2-924 (RFDHKK)  28 Ru
44. 6mer-2-928 (KFCIRR)  28 Ru
45. 6mer-2-892 (KDENRK)  27 Ru
46. 6mer-2-912 (RAPIRR)  27 Ru
47. 6mer-2-919 (KAKHKR)  27 Ru
48. 6mer-2-824 (RITNKR)  26 Ru
49. 6mer-2-836 (KNTMKR)  26 Ru
50. 6mer-2-902 (KPDVRK)  26 Ru
51. 6mer-2-905 (RPKERR)  26 Ru
52. 6mer-2-920 (RMTIKK)  26 Ru
53. 6mer-2-929 (KNHMRK)  26 Ru
54. 6mer-2-934 (KYKDRR)  26 Ru
55. 6mer-2-823 (REDWRK)  25 Ru
56. 6mer-2-907 (RTMNRR)  25 Ru
57. 6mer-2-913 (KFKNRR)  25 Ru
58. 6mer-2-914 (KDDIKK)  25 Ru
59. 6mer-2-820 (RPNNKK)  24 Ru
60. 6mer-2-866 (RDNPKK)  24 Ru
61. 6mer-2-878 (KETVRR)  24 Ru
62. 6mer-2-819 (KFSVRR)  23 Ru
63. 6mer-2-854 (RCNWKR)  23 Ru
64. 6mer-2-917 (RFCWRK)  23 Ru
65. 6mer-2-925 (RASVKR)  23 Ru
66. 6mer-2-817 (KCNDKK)  22 Ru
67. 6mer-2-829 (KKKIRR)  22 Ru
68. 6mer-2-842 (KPKMRR)  22 Ru
69. 6mer-2-844 (RDPKKK)  22 Ru
70. 6mer-2-847 (RYCHKR)  22 Ru
71. 6mer-2-883 (RTNEKR)  22 Ru
72. 6mer-2-894 (RFHWRR)  22 Ru
73. 6mer-2-916 (KTTEKR)  22 Ru
74. 6mer-2-921 (RPKAKK)  22 Ru
75. 6mer-2-935 (KKCNKK)  22 Ru
76. 6mer-2-830 (RMKFKR)  21 Ru
77. 6mer-2-859 (RMDFRK)  21 Ru
78. 6mer-2-861 (KDTDRK)  21 Ru
79. 6mer-2-870 (KMTEKK)  21 Ru
80. 6mer-2-910 (RHEHRR)  21 Ru
81. 6mer-2-911 (KMSGKR)  21 Ru
82. 6mer-2-835 (RHCGKR)  20 Ru
83. 6mer-2-857 (KHTEKK)  20 Ru
84. 6mer-2-851 (KFWWRR)  19 Ru
85. 6mer-2-855 (REMIKR)  19 Ru
86. 6mer-2-879 (RTMDRR)  19 Ru
87. 6mer-2-869 (RHDHKR)  18 Ru
88. 6mer-2-887 (RCPKKR)  18 Ru
89. 6mer-2-863 (RKHWRR)  17 Ru
90. 6mer-2-876 (KEDNKR)  17 Ru
91. 6mer-2-877 (KPPERR)  17 Ru
92. 6mer-2-885 (KCMVRR)  17 Ru
93. 6mer-2-888 (RIAKRK)  17 Ru
94. 6mer-2-893 (REHVRR)  17 Ru
95. 6mer-2-897 (RPAHKK)  17 Ru
96. 6mer-2-850 (KTSMKR)  16 Ru
97. 6mer-2-865 (RHCNRK)  16 Ru
98. 6mer-2-898 (KKKDKK)  16 Ru
99. 6mer-2-840 (KDWDRK)  15 Ru
100. 6mer-2-882 (RTPAKR)  15 Ru
101. 6mer-2-833 (RKTWRR)  14 Ru
102. 6mer-2-845 (KMKEKR)  14 Ru
103. 6mer-2-856 (KEPMRR)  14 Ru
104. 6mer-2-818 (KTPERK)  13 Ru
105. 6mer-2-822 (RCTAKK)  13 Ru
106. 6mer-2-827 (KYAEKK)  13 Ru
107. 6mer-2-838 (RCTVRK)  13 Ru
108. 6mer-2-849 (RNTAKK)  13 Ru
109. 6mer-2-875 (RIDHRK)  13 Ru
110. 6mer-2-886 (KTWVRR)  13 Ru
111. 6mer-2-899 (KKMVKR)  13 Ru
112. 6mer-2-864 (RKCAKK)  12 Ru
113. 6mer-2-880 (RTHHKK)  12 Ru
114. 6mer-2-889 (REWDKK)  12 Ru
115. 6mer-2-825 (KIHARK)  11 Ru
116. 6mer-2-826 (RNTPRK)  11 Ru
117. 6mer-2-873 (KNWGRR)  11 Ru
118. 6mer-2-884 (KMTMKK)  11 Ru
119. 6mer-2-900 (RFSAKK)  11 Ru
